B1: Outer membrane protein A, P0A910 (parent)
chain: MKKTAIAIAVALAGFATVAQAAPKDNTWYTGAKLGWSQYHDTGFINNNGPTHENQLGAGAFGGYQVNPYVGFEMGYDWLGRMPYKGSVENGAYKAQGVQLTAKLGYPITDDLDIYTRLGGMVWRADTKSNVYGKNHDTGVSPVFAGGVEYAITPEIATRLEYQWTNNIGDAHTIGTRPDNGMLSLGVSYRFGQGEAAPVVAPAPAPAPEVQTKHFTLKSDVLFNFNKATLKPEGQAALDQLYSQLSNLDPKDGSVVVLGYTDRIGSDAYNQGLSERRAQSVVDYLISKGIPADKISARGMGESNPVTGNTCDNVKQRAALIDCLAPDRRVEIEVKGIKDVVTQPQA

This data set covers variants of B1. Conditions: Escherichia coli (strain K12); pH 9.2; 37 °C; Urea; Fluorescence; Glycine 10 mM; reversible: Yes; structure 1QJP; whole UniProt chain shown.

Consider eight variants from FireProtDB (doi:10.1021/ja068849o).

As to MKKTAIAIAVALAGFATVAQAAPKDNTWYTGAKLGWSQYHDTGFINNNGPTHENQLGAGAFGGYQVNPYVGFEMGYDWLGRMPYKGSVENGAYKAQGVQLTAKLGYPITDDLDIYTRLGGMVWRADTKSNVYGKNHDTGVSPVFAGGVEYAITPEIATRLEAQATNNIGDAHTIGTRPDNGMLSLGVSYRFGQGEAAPVVAPAPAPAPEVQTKHFTLKSDVLFNFNKATLKPEGQAALDQLYSQLSNLDPKDGSVVVLGYTDRIGSDAYNQGLSERRAQSVVDYLISKGIPADKISARGMGESNPVTGNTCDNVKQRAALIDCLAPDRRVEIEVKGIKDVVTQPQA [Y162A W164A], the “ddG of mutation (higher = less stable)” value was 5.7 kcal/mol, the denaturant m value stood at 2.2 kcal/mol/M, the “denaturant midpoint (higher = more stable)” value (“denaturant midpoint” for short) amounted to 1.6 M and the unfolding free energy amounted to 3.6 kcal/mol.
For MKKTAIAIAVALAGFATVAQAAPKDNTWYTGAKLGWSQYHDTGFINNNGPTHENQLGAGAFGGYQVNPYVGFEMGYDWLGRMPYKGSVENGAYKAQGVQLTAKLGYPITDDLDIYTRLGGMVWRADTKSNVYGKNHDTGVSPVAAGGVEYAITPEIATRLEAQWTNNIGDAHTIGTRPDNGMLSLGVSYRFGQGEAAPVVAPAPAPAPEVQTKHFTLKSDVLFNFNKATLKPEGQAALDQLYSQLSNLDPKDGSVVVLGYTDRIGSDAYNQGLSERRAQSVVDYLISKGIPADKISARGMGESNPVTGNTCDNVKQRAALIDCLAPDRRVEIEVKGIKDVVTQPQA [F144A Y162A], the “ddG of mutation (higher = less stable)” value was 5.3 kcal/mol, the denaturant m value turned out to be 2.1 kcal/mol/M, the “denaturant midpoint” value was determined as 1.9 M and the unfolding free energy was found to be 4 kcal/mol.
As to MKKTAIAIAVALAGFATVAQAAPKDNTAYTGAKLGWSQYHDTGFINNNGPTHENQLGAGAFGGAQVNPYVGFEMGYDWLGRMPYKGSVENGAYKAQGVQLTAKLGYPITDDLDIYTRLGGMVWRADTKSNVYGKNHDTGVSPVFAGGVEYAITPEIATRLEYQWTNNIGDAHTIGTRPDNGMLSLGVSYRFGQGEAAPVVAPAPAPAPEVQTKHFTLKSDVLFNFNKATLKPEGQAALDQLYSQLSNLDPKDGSVVVLGYTDRIGSDAYNQGLSERRAQSVVDYLISKGIPADKISARGMGESNPVTGNTCDNVKQRAALIDCLAPDRRVEIEVKGIKDVVTQPQA [W28A Y64A], the “ddG of mutation (higher = less stable)” value turned out to be 6.4 kcal/mol, the denaturant m value was 1.9 kcal/mol/M, the “denaturant midpoint” value came to 1.6 M and the unfolding free energy is 2.9 kcal/mol.
As to MKKTAIAIAVALAGFATVAQAAPKDNTWYTGAKLGWSQYHDTGFINNNGPTHENQLGAGAFGGYQVNPYVGFEMGYDWLGRMPYKGSVENGAYKAQGVQLTAKLGYPITDDLDIYTRLGGMVWRADTKSNVYGKNHDTGVSPVFAGGVEYAITPEIATRLEYQWTNNIGDAHTIGTRPDNGMLSLGVSARAGQGEAAPVVAPAPAPAPEVQTKHFTLKSDVLFNFNKATLKPEGQAALDQLYSQLSNLDPKDGSVVVLGYTDRIGSDAYNQGLSERRAQSVVDYLISKGIPADKISARGMGESNPVTGNTCDNVKQRAALIDCLAPDRRVEIEVKGIKDVVTQPQA [Y189A F191A], the “ddG of mutation (higher = less stable)” value was 1.2 kcal/mol, the denaturant m value was 3.1 kcal/mol/M, the “denaturant midpoint” value worked out at 2.6 M and the unfolding free energy was determined as 8.1 kcal/mol.
For the variant MKKTAIAIAVALAGFATVAQAAPKDNTWYTGAKLGASQYHDTGFINNNGPTHENQLGAGAFGGYQVNPYVGFEMGYDWLGRMPYKGSVENGAYKAQGVQLTAKLGYPITDDLDIYTRLGGMVWRADTKSNVYGKNHDTGVSPVFAGGVEYAITPEIATRLEYQWTNNIGDAHTIGTRPDNGMLSLGVSYRFGQGEAAPVVAPAPAPAPEVQTKHFTLKSDVLFNFNKATLKPEGQAALDQLYSQLSNLDPKDGSVVVLGYTDRIGSDAYNQGLSERRAQSVVDYLISKGIPADKISARGMGESNPVTGNTCDNVKQRAALIDCLAPDRRVEIEVKGIKDVVTQPQA [W36A], the “ddG of mutation (higher = less stable)” value was 2 kcal/mol, the denaturant m value stood at 2.4 kcal/mol/M, the “denaturant midpoint” value turned out to be 3.1 M and the unfolding free energy amounted to 7.3 kcal/mol.
For the variant MKKTAIAIAVALAGFATVAQAAPKDNTWYTGAKLGWSQYHDTGFINNNGPTHENQLGAGAFGGYQVNPYVGFEMGYDWLGRMPYKGSVENGAYKAQGVQLTAKLGYPITDDLDIYTRLGGMVWRADTKSNVYGKNHDTGVSPVFAGGVEYAITPEIATRLEYQATNNIGDAHTIGTRPDNGMLSLGVSYRFGQGEAAPVVAPAPAPAPEVQTKHFTLKSDVLFNFNKATLKPEGQAALDQLYSQLSNLDPKDGSVVVLGYTDRIGSDAYNQGLSERRAQSVVDYLISKGIPADKISARGMGESNPVTGNTCDNVKQRAALIDCLAPDRRVEIEVKGIKDVVTQPQA [W164A], the “ddG of mutation (higher = less stable)” value is 3.1 kcal/mol, the denaturant m value came out at 2.2 kcal/mol/M, the “denaturant midpoint” value amounted to 2.8 M and the unfolding free energy stood at 6.2 kcal/mol.
For the variant MKKTAIAIAVALAGFATVAQAAPKDNTWYTGAKLGWSQYHDTGFINNNGPTHENQLGAGAFGGYQVNPYVGFEMGYDWLGRMPYKGSVENGAYKAQGVQLTAKLGYPITDDLDIYTRLGGMVWRADTKSNVYGKNHDTGVSPVAAGGVEYAITPEIATRLEYQATNNIGDAHTIGTRPDNGMLSLGVSYRFGQGEAAPVVAPAPAPAPEVQTKHFTLKSDVLFNFNKATLKPEGQAALDQLYSQLSNLDPKDGSVVVLGYTDRIGSDAYNQGLSERRAQSVVDYLISKGIPADKISARGMGESNPVTGNTCDNVKQRAALIDCLAPDRRVEIEVKGIKDVVTQPQA [F144A W164A], the “ddG of mutation (higher = less stable)” value was 3.9 kcal/mol, the denaturant m value turned out to be 2.3 kcal/mol/M, the “denaturant midpoint” value turned out to be 2.4 M and the unfolding free energy came to 5.4 kcal/mol.
Take MKKTAIAIAVALAGFATVAQAAPKDNTWYTGAKLGWSQYHDTGFINNNGPTHENQLGAGAFGGYQVNPYVGFEMGADWLGRMPYKGSVENGAYKAQGVQLTAKLGYPITDDLDIYTRLGGMVWRADTKSNVYGKNHDTGVSPVFAGGVEYAITPEIATRLEYQWTNNIGDAHTIGTRPDNGMLSLGVSYRFGQGEAAPVVAPAPAPAPEVQTKHFTLKSDVLFNFNKATLKPEGQAALDQLYSQLSNLDPKDGSVVVLGYTDRIGSDAYNQGLSERRAQSVVDYLISKGIPADKISARGMGESNPVTGNTCDNVKQRAALIDCLAPDRRVEIEVKGIKDVVTQPQA [Y76A]: the “ddG of mutation (higher = less stable)” value was determined as 2.5 kcal/mol, the denaturant m value worked out at 2.2 kcal/mol/M, the “denaturant midpoint” value came out at 3.1 M and the unfolding free energy was determined as 6.8 kcal/mol.
